Measured values reported in US11534461B2, “High affinity merkel cell polyomavirus T antigen-specific TCRS and uses thereof” (priority 2016, dated 2022).

Columns and labels:
[1] = test system: HLA-A*02:01 fibroblast cell lines transduced with MCPyV LT antigen; assay: 4 hour chromium release assay, LT antigen transduced targets; type: cell-based; conditions: transduced CD8+ T cells
[2] = test system: peptide loaded HLA-A*02:01 K562 cells; assay: Effector cytokine secretion (IFNγ, IL-2, TNF) of transduced T cells; type: cell-based
From the text: (A) CD8 T cells were successfully transduced with codon-optimized MCC-specific TCR (MCC1).
The polynucleotide of one of the patient-derived class I high avidity TCR clones (MCC1) was codon optimized and transduced into CD8+ T and examined for their ability to activate […].

[3] = test system: peptide loaded HLA-A*02:01 K562 cells; assay: 4 hour chromium release assay, peptide loaded targets; type: cell-based; conditions: transduced CD8+ T cells
[4] = test system: peptide loaded HLA-A*02:01 K562 cells; assay: Proliferation of transduced T cells over 72 hours; type: cell-based; conditions: transduced CD8+ T cells
KLL-tetramer = KLL-tetramer staining of MCC1-transduced T cells after expansion; type: binding; conditions: CD8+ and CD4+ T cells transduced with codon-optimized TCR, expanded in culture for two weeks

B1: MCC1: patient-derived class I high avidity MCPyV T antigen KLL-specific TCR, codon optimized and transduced into T cells (protein)
alpha: RKEVEQDPGPFNVPEGATVAFNCTYSNSASQSFFWYRQDCRKEPKLLMSVYSSGNEDGRFTAQLNRASQYISLLIRDSKLSDSATYLCVVATYSGGGADGLTFGKGTHLIIQPDIQNPDPAVYQLRDSKSSDKSVCLFTDFDSQTNVSQSKDSDVYITDKCVLDMRSMDFKSNSAVAWSNKSDFACANAFNNSIIPEDTFFPSPESSCDVKLVEKSFETDTNLNFQNLSVIGFRILLLKVAGFNLLMTLRLWSS
beta: DAGITQSPRYKITETGRQVTLMCHQTWSHSYMFWYRQDLGHGLRLIYYSAAADITDKGEVPDGYVVSRSKTENFPLTLESATRSQTSVYFCASSSGNPSTDTQYFGPGTRLTVLDLKNVFPPEVAVFEPSEAEISHTQKATLVCLATGFYPDHVELSWWVNGKEVHSGVCTDPQPLKEQPALNDSRYCLSSRLRVSATFWQNPRNHFRCQVQFYGLSENDEWTQDRAKPVTQIVSAEAWGRADCGFTSESYQQGVLSATILYEILLGKATLYAVLVSALVLMAMVKRKDSRG
specific killing of MCPyV LT antigen transduced targets [1]: specifically killed
maximum percentage of transduced cells that secrete IFNγ, IL-2 and TNF ([2]; saturating levels of peptide (5 μg/mL), CD4+ versus CD8+ T cells): similar
sensitivity to engage cytokine secretion ([2]; transduced CD4+ T cells): reduced sensitivity
effector cytokine production ([2]; transduced CD8+ T cells): make effector cytokines
specific killing of peptide loaded targets [3]: specifically killed
proliferation [4]: readily proliferate
tetramer positivity after expansion (KLL-tetramer): remained tetramer positive
